In patent US20250090699A1, “FAP TARGETING CYCLIC PEPTIDES AND CONJUGATES THEREOF” (Novartis AG, priority 2023, published 2025):
Starred links: 1 amine or outer side, 2 acyl side, 3 side chain; linkers in the order of their positions; H or OH if unused. Non-standard residues stand in square brackets, D forms with d. *: point of attachment. F(4amPEG2NHDOTA-Ga) = gallium complex of (S)-2,2',2''-(10-(1-(4-(2-amino-2-carboxyethyl)phenyl)-3,12-dioxo-5,8-dioxa-2,11-diazatridecan-13-yl)-1,4,7,10-tetraazacyclododecane-1,4,7-triyl)triacetic acid (Phe with 4-aminomethyl-PEG2-DOTA-Ga), O=C([O-])CN1CCN(CC(=O)[O-])CCN(CC(=O)NCCOCCOCC(=O)NCc2ccc(C[C@H](N[*:1])C(=O)[*:2])cc2)CCN(CC(=O)[O-])CC1.[Ga+3]; F(4amPEG2NH-NOTA-AlF) = aluminum [18F]fluoride complex of (S)-2,2'-(7-(1-(4-(2-amino-2-carboxyethyl)phenyl)-3,12-dioxo-5,8-dioxa-2,11-diazatridecan-13-yl)-1,4,7-triazonane-1,4-diyl)diacetic acid (Phe with 4-aminomethyl-PEG2-NOTA-Al18F), O=C([O-])CN1CCN(CC(=O)[O-])CCN(CC(=O)NCCOCCOCC(=O)NCc2ccc(C[C@H](N[*:1])C(=O)[*:2])cc2)CC1.[18F][Al+2]; F(4amPEG2NH-NOTA-Ga) = gallium complex of (S)-2,2'-(7-(1-(4-(2-amino-2-carboxyethyl)phenyl)-3,12-dioxo-5,8-dioxa-2,11-diazatridecan-13-yl)-1,4,7-triazonane-1,4-diyl)diacetic acid (Phe with 4-aminomethyl-PEG2-NOTA-Ga), O=C([O-])CN1CCN(CC(=O)[O-])CCN(CC(=O)NCCOCCOCC(=O)NCc2ccc(C[C@H](N[*:1])C(=O)[*:2])cc2)CC1.[Ga+3]; F(4amDOTA-Lu) = lutetium complex of (S)-2,2',2''-(10-(2-((4-(2-amino-2-carboxyethyl)benzyl)amino)-2-oxoethyl)-1,4,7,10-tetraazacyclododecane-1,4,7-triyl)triacetic acid (Phe with 4-aminomethyl-DOTA-Lu), O=C([O-])CN1CCN(CC(=O)[O-])CCN(CC(=O)NCc2ccc(C[C@H](N[*:1])C(=O)[*:2])cc2)CCN(CC(=O)[O-])CC1.[Lu+3]; F(4amPEG2NHAAZTA-Lu) = lutetium complex of (S)-2,2'-((6-(1-(4-(2-amino-2-carboxyethyl)phenyl)-3,12-dioxo-5,8-dioxa-2,11-diazahexadecan-16-yl)-1,4-bis(carboxymethyl)-1,4-diazepan-6-yl)azanediyl)diacetic acid (Phe with 4-aminomethyl-PEG2-AAZTA-L; F(4OEtnHNODAGA-Lu) = lutetium complex of 2,2'-(7-(4-((2-(4-((S)-2-amino-2-carboxyethyl)phenoxy)ethyl)amino)-1-carboxy-4-oxobutyl)-1,4,7-triazonane-1,4-diyl)diacetic acid (Phe with 4-O-ethylamino-NODAGA-Lu); COpipzaa = 4-(carboxymethyl)piperazine-1-carbonyl, O=C(O)CN1CCN(C(=O)*)CC1; F(4OEtNHRDOTAGA-Ga) = Phe with 4-O-ethyl-NH-DOTAGA, Ga complex; F(4OEtNHRDOTAGA-Lu) = Phe with 4-O-ethyl-NH-DOTAGA, Lu complex; hS(Pr) = O-propyl-L-homoserine, CCCOCC[C@H](N[*:1])C(=O)[*:2]; NMeF = CN[C@@H](Cc1ccccc1)C(=O)O; Ahp(2) = CCCCC[C@H](N)C(=O)O

What was measured:
mouse FAP [1] = target: T1, mouse FAP (Mus musculus, UniProt P97321); test: Surface plasmon resonance (SPR) for peptide affinity, mouse FAP; assay type: binding
T1 construct: biotinylated His, Avi tag, mouse FAP (26-761, FAP-M82Q5); His; Avi tag (biotinylated); purchased AcroBiosystems FAP-M82Q5
T1 sequence (P97321 26-761): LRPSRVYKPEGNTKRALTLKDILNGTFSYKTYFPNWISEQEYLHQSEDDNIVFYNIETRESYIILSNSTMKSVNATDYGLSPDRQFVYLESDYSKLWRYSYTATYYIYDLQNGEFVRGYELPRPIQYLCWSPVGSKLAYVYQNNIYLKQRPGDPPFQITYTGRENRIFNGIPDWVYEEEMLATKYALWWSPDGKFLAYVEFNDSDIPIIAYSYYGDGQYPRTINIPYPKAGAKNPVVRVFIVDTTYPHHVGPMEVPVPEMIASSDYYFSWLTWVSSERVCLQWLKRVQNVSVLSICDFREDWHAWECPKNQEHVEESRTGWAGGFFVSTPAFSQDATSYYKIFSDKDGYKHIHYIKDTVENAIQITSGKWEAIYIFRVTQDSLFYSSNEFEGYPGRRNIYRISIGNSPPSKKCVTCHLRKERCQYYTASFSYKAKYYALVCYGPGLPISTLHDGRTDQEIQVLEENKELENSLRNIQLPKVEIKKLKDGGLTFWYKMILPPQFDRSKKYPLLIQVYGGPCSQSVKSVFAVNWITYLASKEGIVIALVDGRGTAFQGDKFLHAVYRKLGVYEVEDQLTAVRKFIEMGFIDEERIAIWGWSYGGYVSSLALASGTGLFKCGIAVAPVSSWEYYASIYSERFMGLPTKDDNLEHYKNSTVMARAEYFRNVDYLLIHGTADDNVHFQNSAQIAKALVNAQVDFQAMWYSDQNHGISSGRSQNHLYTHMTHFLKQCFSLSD
Method in brief: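 KD values come from a 1:1 kinetic fit of single-cycle SPR data: 8 peptide concentrations, 25 °C, 30 μL/min, HEPES-buffered saline pH 7.6 with 2% DMSO. Targets were His/Avi-tagged human (26-760) or mouse (26-761) FAP, amine-coupled to CM5 or held on a CAPture chip.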

mouse FAP [2] = target: T1, mouse FAP; test: Enzymatic FAP competition assay (Z-Gly-Pro-AMC fluorescence), mouse FAP; assay type: biochemical; conditions: read-out: m. FAP, Enz., IC50
Method in brief: (§1)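 IC50 values come from curve fitting of duplicate % inhibition data on AMC fluorescence (ex 380, em 460 nm) after 4 h at 22-24° C with 50 μM Z-Gly-Pro-AMC. Beforehand, peptides up to 1 μM (14 levels) sat 24 h with 0.01 nM human (26-760) or mouse (26-761) tagged FAP in phosphate buffer pH 7.5, NaCl, Tween20, 1% DMSO.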

human FAP = target: T2, human FAP (Homo sapiens, UniProt Q12884); test: Enzymatic FAP competition assay (Z-Gly-Pro-AMC fluorescence), human FAP; assay type: biochemical; conditions: read-out: h. FAP, Enz., IC50
T2 construct: the biotinylated His, Avi tag, human FAP (26-760, FAP-H82Q6); His; Avi tag (biotinylated); purchased AcroBiosystems FAP-H82Q6
T2 sequence (Q12884 26-760): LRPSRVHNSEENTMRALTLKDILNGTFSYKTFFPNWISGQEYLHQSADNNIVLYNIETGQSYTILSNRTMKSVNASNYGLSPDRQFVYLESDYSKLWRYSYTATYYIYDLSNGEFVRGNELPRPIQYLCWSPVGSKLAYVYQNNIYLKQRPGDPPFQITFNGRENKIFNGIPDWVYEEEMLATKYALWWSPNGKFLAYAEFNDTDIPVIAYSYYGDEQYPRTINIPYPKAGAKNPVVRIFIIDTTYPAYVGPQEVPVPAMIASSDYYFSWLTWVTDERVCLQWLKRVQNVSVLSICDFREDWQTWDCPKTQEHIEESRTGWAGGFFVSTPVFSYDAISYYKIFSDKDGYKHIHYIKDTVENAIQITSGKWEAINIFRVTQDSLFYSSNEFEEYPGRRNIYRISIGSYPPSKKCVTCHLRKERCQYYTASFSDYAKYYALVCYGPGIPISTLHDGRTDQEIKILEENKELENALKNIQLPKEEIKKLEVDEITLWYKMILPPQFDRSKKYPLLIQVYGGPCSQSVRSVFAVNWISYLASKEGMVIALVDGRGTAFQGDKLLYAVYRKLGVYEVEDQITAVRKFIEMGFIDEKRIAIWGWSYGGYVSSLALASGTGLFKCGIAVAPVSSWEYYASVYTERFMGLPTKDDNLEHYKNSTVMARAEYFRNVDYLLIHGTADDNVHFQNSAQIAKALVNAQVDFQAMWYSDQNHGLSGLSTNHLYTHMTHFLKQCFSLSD
Method in brief: as §1

Row | Kd (mouse FAP [1]) [nM] | IC50 (mouse FAP [2]) [nM] | IC50 (human FAP) [nM] | Substance
1 | 0.037 | 0.048 | 0.012 | Gly-Gly-NMePhe-F(4OEtNHRDOTAGA-Ga)-Ahp-Trp-Gly-Tyr-Asp-D-Pro (cyclo(GG[NMeF][F(4OEtNHRDOTAGA-Ga)][Ahp(2)]WGYD[dP]); also: Ga complex of DOTAGA) [Example C38]
2 | < 0.01 | 0.027 | 0.007 | Gly-Gly-NMePhe-F(4OEtNHRDOTAGA-Lu)-Ahp-Trp-Gly-Tyr-Asp-D-Pro (cyclo(GG[NMeF][F(4OEtNHRDOTAGA-Lu)][Ahp(2)]WGYD[dP]); also: Lu complex of DOTAGA) [Example C31]
3 | < 0.017 | 0.193 | 0.034 | Gly-Gly-NMePhe-F(4OEtnHNODAGA-Lu)-Ahp-Trp-Gly-Tyr-Asp-D-Pro (cyclo(GG[NMeF][F(4OEtnHNODAGA-Lu)][Ahp(2)]WGYD[dP]); also: Lu complex) [Example C30]
4 | 0.4 | 0.29 | 0.084 | Gly-Gly-NMePhe-F(4amDOTA-Lu)-Ahp-Trp-Gly-Tyr-Asp-D-Pro (cyclo(GG[NMeF][F(4amDOTA-Lu)][Ahp(2)]WGYD[dP]); also: Lu complex) [Example C16]
5 | < 0.035 | 0.035 | 0.013 | Gly-Gly-NMePhe-F(4amPEG2NH-NOTA-AlF)-hS(Pr)-Trp-Gly-K(COpipzaa)-Asp-D-Pro (cyclo(GG[NMeF][F(4amPEG2NH-NOTA-AlF)][hS(Pr)]WGK(COpipzaa)D[dP]); also: Al[18F]F complex) [Example C53]
6 | < 0.043 | 0.031 | 0.013 | Gly-Gly-NMePhe-F(4amPEG2NH-NOTA-Ga)-hS(Pr)-Trp-Gly-K(COpipzaa)-Asp-D-Pro (cyclo(GG[NMeF][F(4amPEG2NH-NOTA-Ga)][hS(Pr)]WGK(COpipzaa)D[dP]); also: Ga complex) [Example C41]
7 | < 0.027 | 0.044 | 0.017 | Gly-Gly-NMePhe-F(4amPEG2NHAAZTA-Lu)-hS(Pr)-Trp-Gly-K(COpipzaa)-Asp-D-Pro (cyclo(GG[NMeF][F(4amPEG2NHAAZTA-Lu)][hS(Pr)]WGK(COpipzaa)D[dP]); also: Lu complex) [Example C32]
8 | < 0.012 | 0.016 | 0.005 | Gly-Gly-NMePhe-F(4amPEG2NHDOTA-Ga)-Ahp-Trp-Gly-Tyr-Asp-D-Pro (cyclo(GG[NMeF][F(4amPEG2NHDOTA-Ga)][Ahp(2)]WGYD[dP]); also: Ga complex) [Example C49]
